Results taken from patent US6676941B2 (Board of Regents, The University of Texas System, priority 1999, dated 2004).

Tested on: Bend3 mouse endothelial cells; ABAE; HUVEC
Assay: Direct binding of biotinylated 6-His endostatin to endothelial cells
Format: cell-based, bovine, human
Conditions: streptavidin-peroxidase detection
Source text: Binding was detected using streptavidin-peroxidase in conjunction with O-phenylenediamine (OPD) and the absorbance read at 490 nm.

B1: endostatin (protein, UniProt P39060 1572-1754, looked up)
Endostatin: HSHRDFQPVLHLVALNSPLSGGMRGIRGADFQCFQQARAVGLAGTFRAFLSSRLQDLYSIVRRADRAAVPIVNLKDELLFPSWEALFSGSEGPLKPGARIFSFDGKDVLRHPTWPQKSVWHGSDPNGRRLTESYCETWRTEAPSATGQASSLLGGRLLGQSAASCHHAYIVLCIENSFMTASK
modifications: Endostatin
B1 was tested, and the “Binding to endothelial cells in vitro” value was “bound in a saturable fashion”.
